The values below come from publication PMC5986196, “Arrest of trans-SNARE zippering uncovers loosely and tightly docked intermediates in membrane fusion” (The Journal of Biological Chemistry, 2018).

For the assay, the target named is T1, syntaxin 1a (syx(183–288)) (Rattus norvegicus, UniProt P32851 183-288).
T1 construct: also called N-terminally truncated variant of syntaxin; source: in n-octyl β-D-glucopyranoside
In words: co-purification by ion exchange chromatography (Mono Q); purified monomers mixed overnight at 4 °C, complex purified the next day on a Mono Q column. The following applies: both partners purified.

T1 sequence (P32851 183-288): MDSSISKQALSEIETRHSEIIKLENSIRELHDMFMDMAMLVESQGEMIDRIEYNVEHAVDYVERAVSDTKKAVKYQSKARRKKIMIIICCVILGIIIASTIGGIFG

B1: syb(49–96), C-terminal fragment of synaptobrevin (domain or fragment, Rattus norvegicus, UniProt P63045 49-96, looked up)
chain: NVDKVLERDQKLSELDDRADALQAGASQFETSAAKLKRKYWWKNLKMM
notes: synaptobrevin 2 (syb), Rattus norvegicus, residues 49–96; also called synaptobrevin(49–96)
For B1, the binding result was “binds”.
